Patent publication US20230285585A1, “TREATMENT OF PULMONARY HYPERTENSION” (PHILOGEN S.P.A., priority 2020, published 2023)
Entries after “also recorded” stand apart in the source; their conditions may differ.

Columns and labels:
[1] = Storage stability (OD280, SEC, SDS-PAGE); format: physicochemical
Method: Storage stability of F8(scFv)-mIL9-F8(scFv) was assessed by size exclusion chromatography profile and analytical SDS-PAGE analysis of the protein after: a) incubation at 37° C. for 3, 5 and 7 days, b) incubation at 4° C. for 7 days and c) a series of 3 freeze and thaw cycles.

[2] = test system: Monocrotaline (MCT) induced pulmonary hypertension (PH) in C57BL/6 mice; test: Right heart catheterization in MCT induced PH mouse model (Example 3); format: in vivo
Source text: (§1) Pulmonary Hypertension (PH) was induced in C57BL/6 mice (bodyweight: 25-30 g). The animals were obtained from ZET facility (Zentale Experimentelle Tierhaltung) of the University Hospital Jena (UKJ, Jena, Germany). Prior to PH induction, mice were allowed to acclimatize for at least 7 days with ad libitum access to food and water as well as controlled light/dark cycles. As shown in the overview of the experimental design and treatment schedule (FIG. 6), the following experimental groups were investigated: • sham induced controls (n=6) • MCT induced PH (n=8) • MCT induced PH+MACI (n=7) • MCT induced PH+F8(scFv)-mIL9-F8(scFv) (also named F8-IL9) (n=6) • MCT induced PH+KSF(scFv)-mIL9-KSF(scFv) (also named KSF-IL9) (n=6)
For PH induction, the Monocrotaline (MCT) method was used.
The sham induced controls were injected with 30 μl NaCl not containing MCT at day 1 (single dose; intraperitoneally, i.p.). […] The other 4 experimental groups were injected with MCT to induce PH (single dose; intraperitoneally, i.p.; 60 mg/kg body weight; volume 30 μl). Animals in the MCT induced PH+MACI group received the drug (Macitentan) from day 14 to day 28 (once daily; per os; 15 mg/kg body weight). […]
(§2) Statistical analyses were performed using IBM SPSS statistical software, version 25.0 (IBM SPSS Statistics for Windows. Armonk, N.Y., USA). Data are expressed as mean±standard deviation. […]

[3] = Melting temperature (Protein Thermal Shift kit); format: physicochemical
Method: The melting temperature of the different mIL9 conjugates was determined using a StepOne real-Time PCR system in combination with the Protein Thermal Shift kit.

[4] = test system: Monocrotaline (MCT) induced pulmonary hypertension (PH) in C57BL/6 mice; test: Echocardiographic assessment in MCT induced PH mouse model (Example 4); format: in vivo; conditions: in contrast to KSF containing control immunocytokines
Method: To induce Pulmonary Hypertension (PH), C57BL/6 mice (bodyweight: 25-30 g) were used. The animals were obtained from ZET facility (Zentrale Experimentelle Tierhaltung) of the University Hospital Jena (UKJ, Jena, Germany). Prior to PH induction, mice were allowed to acclimatize for at least 7 days with ad libitum access to food and water as well as controlled light/dark cycles. […]
(§3) Echocardiographic assessment was performed on day 28 using the Vevo 770 Rodent-Ultrasound-System, Visual Sonic, Canada, 17 MHz probe RMV176. […] Body temperature and respiratory rate were continuously monitored. All surrogate parameters of right ventricular (RV) morphology and function were assessed, among others, RV basal and medial diameters (in mm), RV length (in mm), tricuspid annular plane systolic excursion (TAPSE, in mm), right atrial area (RA area, in mm^2) or main pulmonary artery diameter (MPA, in mm).
as §2

[5] = test system: Monocrotaline (MCT) induced pulmonary hypertension (PH) in C57BL/6 mice; test: Echocardiographic assessment in MCT induced PH mouse model (Example 3); format: in vivo; conditions: in contrast to untargeted KSF(scFv)-mIL9-KSF(scFv)
Source text: as §1
For PH induction, the Monocrotaline (MCT) method was used. […]
as §3, with “28 (FIG. 6)” for “28”, “and RV fractional area change (FAC,” for “tricuspid annular plane systolic excursion (TAPSE,”, “%).” for “mm), right atrial area (RA area, in mm^2) or main pulmonary artery diameter (MPA, in mm).”
as §2

[6] = target: T1, recombinant fibronectin 11A12 domain (EDA) (Homo sapiens, UniProt P02751); test: Biacore surface plasmon resonance binding analysis; conditions: SPR, BIAcore X100, CM5 chip coated with recombinant fibronectin 11A12 domain
T1 construct: recombinant fibronectin 11A12 domain
Method: Binding affinity was determined by surface plasmon resonance using a BIAcore X100 instrument using a CM5 chip coated with recombinant fibronectin 11A12 domain. Samples were injected as serial-dilution, using a concentration range from […] to 125 nM.

[7] = test system: Monocrotaline (MCT) induced pulmonary hypertension (PH) in C57BL/6 mice; test: Right heart catheterization in MCT induced PH mouse model (Example 4); format: in vivo; conditions: in contrast to KSF containing control immunocytokines
Source text: To induce Pulmonary Hypertension (PH), C57BL/6 mice (bodyweight: 25-30 g) were used. The animals were obtained from ZET facility (Zentrale Experimentelle Tierhaltung) of the University Hospital Jena (UKJ, Jena, Germany). Prior to PH induction, mice were allowed to acclimatize for at least 7 days with ad libitum access to food and water as well as controlled light/dark cycles. In this set of experiments, 50 animals were investigated divided into the following 7 experimental groups: • sham induced controls (n=10) • MCT induced PH (n=8) • MCT induced PH+MACI (n=8) • MCT induced PH+F8mIL9F8 in CrAb format (n=6) • MCT induced PH+KSFmIL9KSF in CrAb format (n=6) • MCT induced PH+F8_(IgG-HC4)-mIL9 (n=6) • MCT induced PH+KSF_(IgG-HC4)-mIL9 (n=6)
For PH induction, the Monocrotaline (MCT, Carl Roth, Germany) method was used.
The sham induced controls were injected with 30 μl NaCl not containing MCT at day 1 (single dose; intraperitoneally, i.p.). […] The other 6 experimental groups were injected with MCT (single dose; intraperitoneally, i.p.; 60 mg/kg body weight; volume 30 μl). Animals in the MCT induced PH+MACI group received the drug (Macitentan, Actelion Pharmaceuticals Ltd.) from day 14 to day 28 (once daily; per os; 15 mg/kg body weight).
Animals in the MCT induced PH+F8mIL9F8 in CrAb format group received F8mIL9F8 3 times on days 14, 16 and 18 (intravenously, i.v.; 200 μg/injection; volume 154 μl). Animals in the MCT induced PH+KSFmIL9KSF in CrAb format group received KSFmIL9KSF 3 times on days 14, 16 and 18 (intravenously, i.v.; 198 μg/injection; volume 182 μl).
Animals in the MCT induced PH+F8_(IgG-HC4)-mIL9 group received F8_(IgG-HC4)-mIL9 3 times on days 14, 16 and 18 (intravenously, i.v.; 261 μg/injection; volume 137 μl). Animals in the MCT induced PH+KSF_(IgG-HC4)-mIL9 group received KSF_IgG-HC4mIL9 3 times on days 14, 16 and 18 (intravenously, i.v.; 258 μg/injection; volume 161 μl).
On day 28 after MCT injection, mice of all experimental groups were deeply anesthetized with a single dose of 100 mg/kg body weight ketamine and 10 mg/kg body weight Xylazin in approximately 60 μl each administered i.p.
Right heart catheterization using a 1.4 F micro conductance pressure-volume catheter (Model SPR-839; Millar Instruments Inc; PowerLab system, ADInstruments Ltd., Oxford, UK) was performed via the right vena jugularis interna to measure the systolic right ventricular pressure and thereby verify the success of the experimental setting. Mice were then sacrificed in deep anesthesia and analgesia to carry out cardiac blood collection after thoracotomy and to harvest the organs.
as §2

T1 sequence (P02751 1629-1905 limits assumed): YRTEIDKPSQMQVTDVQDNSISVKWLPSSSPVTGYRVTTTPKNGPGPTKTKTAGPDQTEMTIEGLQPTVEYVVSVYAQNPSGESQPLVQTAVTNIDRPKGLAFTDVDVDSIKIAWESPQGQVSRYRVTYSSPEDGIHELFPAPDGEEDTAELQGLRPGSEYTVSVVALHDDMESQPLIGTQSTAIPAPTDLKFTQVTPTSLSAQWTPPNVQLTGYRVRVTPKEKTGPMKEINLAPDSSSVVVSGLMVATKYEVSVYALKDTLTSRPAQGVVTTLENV

B1: F8(scFv)-mIL9-F8(scFv): murine IL9 conjugated at N- and C-terminus to an F8 scFv via 10 amino acid linker, CrAb format; SEQ ID NO: 17 (protein)
chain: EVQLLESGGGLVQPGGSLRLSCAASGFTFSLFTMSWVRQAPGKGLEWVSAISGSGGSTYYADSVKGRFTISRDNSKNTLYLQMNSLRAEDTAVYYCAKSTHLYLFDYWGQGTLVTVSSGGGGSGGGGSGGGGEIVLTQSPGTLSLSPGERATLSCRASQSVSMPFLAWYQQKPGQAPRLLIYGASSRATGIPDRFSGSGSGTDFTLTISRLEPEDFAVYYCQQMRGRPPTFGQGTKVEIKSGGSGSGGGGQRCSTTWGIRDTNYLIENLKDDPPSKCSCSGNVTSCLCLSVPTDDCTTPCYREGLLQLTNATQKSRLLPVFHRVKRIVEVLKNITCPSFSCEKPCNQTMAGNTLSFLKSLLGTFQKTEMQRQKSRPSGGSGSGGGGEVQLLESGGGLVQPGGSLRLSCAASGFTFSLFTMSWVRQAPGKGLEWVSAISGSGGSTYYADSVKGRFTISRDNSKNTLYLQMNSLRAEDTAVYYCAKSTHLYLFDYWGQGTLVTVSSGGGGSGGGGSGGGGEIVLTQSPGTLSLSPGERATLSCRASQSVSMPFLAWYQQKPGQAPRLLIYGASSRATGIPDRFSGSGSGTDFTLTISRLEPEDFAVYYCQQMRGRPPTFGQGTKVEIK
modifications: F8(scFv)-mIL9-F8(scFv) (“CrAb” format)
stability to freeze and thawing (protein concentration, SEC profile, SDS-PAGE) ([1]; 3 cycles of freeze and thawing): no loss of concentration, no changes in the size exclusion profile or SDS-PAGE analysis; also recorded: no loss of concentration
thermal stability over time (protein concentration, SEC profile, SDS-PAGE) ([1]; incubated at 4° for up to 7 days): no loss of concentration, no changes in the size exclusion profile or SDS-PAGE analysis; also recorded: no loss of concentration
thermal stability over time (protein concentration, SEC profile, SDS-PAGE) ([1]; incubated at 37° C. for up to 7 days): no loss of concentration, no changes in the size exclusion profile or SDS-PAGE analysis; also recorded: no loss of concentration
treatment effects relative to MACI (result in words) ([2]; MACI 15 mg/kg per os once daily day 14 to 28): at least comparable
pressure values in the right ventricle (result in words) ([2]; in contrast to untargeted KSF(scFv)-mIL9-KSF(scFv), 200 μg/injection i.v. days 14, 16, 18): significantly reduce
increase in melting temperature compared with diabody formats F8(db)-mIL9 and mIL9-F8(db) [3]: ~3 °C
echocardiographic signs of right ventricular load and dysfunction (result in words) [4]: significantly improved a variety
echocardiographic signs of right ventricular load and dysfunction (result in words) [5]: significantly improved the majority
apparent KD [6]: in the nM range
pressure values in the right ventricle, RVPsys (result in words) [7]: significantly reduced
